The target in assay [1] is T1, recombinant human Ang2 (Biolegend) (human, UniProt O15123 19-496).
T1 chain: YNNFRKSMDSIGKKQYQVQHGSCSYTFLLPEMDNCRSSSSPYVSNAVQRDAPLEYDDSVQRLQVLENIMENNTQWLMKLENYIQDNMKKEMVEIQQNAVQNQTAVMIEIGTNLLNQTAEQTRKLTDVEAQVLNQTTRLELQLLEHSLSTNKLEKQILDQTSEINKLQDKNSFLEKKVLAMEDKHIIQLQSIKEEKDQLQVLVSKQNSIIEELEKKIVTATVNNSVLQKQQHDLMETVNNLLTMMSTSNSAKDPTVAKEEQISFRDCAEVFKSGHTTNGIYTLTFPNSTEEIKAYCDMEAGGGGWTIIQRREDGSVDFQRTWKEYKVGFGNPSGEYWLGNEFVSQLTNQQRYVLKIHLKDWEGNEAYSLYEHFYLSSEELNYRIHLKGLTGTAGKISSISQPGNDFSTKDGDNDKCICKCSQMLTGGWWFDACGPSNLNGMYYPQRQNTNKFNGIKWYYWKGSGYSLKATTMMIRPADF
As to the kind of experiment: Ang2-Tie2 blocking ELISA; Test 1. (In general: ELISA stands for enzyme-linked immunosorbent assay.)

Assay [2] has as its target T1, recombinant human Ang2 (Biolegend). As to the kind of experiment: Ang2-Tie2 blocking ELISA; Test 2.
For assay [3] the target is unchanged. As to the kind of experiment: ELISA.
A further assay addresses PD-1 (UniProt Q15116 25-167). As to the kind of experiment: PD-1 blocking assay.
The target of assay [4] is T1, recombinant human Ang2 (Biolegend). In words: Ang2-Tie2 blocking ELISA; Test 3.

Sequence of PD-1 (Q15116 25-167): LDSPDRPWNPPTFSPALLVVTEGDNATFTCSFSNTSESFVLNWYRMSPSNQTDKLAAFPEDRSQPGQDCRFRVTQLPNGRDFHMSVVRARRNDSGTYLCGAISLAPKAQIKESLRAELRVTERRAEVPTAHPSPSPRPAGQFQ

B1: A2Z-ld (Fc fusion)
chain: ESKYGPPCPPCPAPEFLGGPSVFLFPPKPKDTLMISRTPEVTCVVVDVSQEDPEVQFNWYVDGVEVHNAKTKPREEQFNSTYRVVSVLTVLHQDWLNGKEYKCKVSNKGLPSSIEKTISKAKGQPREPQVYTLPPSQEEMGGAQTNFMPMDDLEQRLYEQFILQQGGGGSGGGGSGGGGSGGGGSTNFMPMDDLEQRLYEQFILQQGLETKNQVSLTCLVKGFYPSDIAVEWESNGQPENNYKTTPPVLDSDGSFFLYSRLTVDKSRWQEGNVFSCSVMHEALHNHYTQKSLSLSLGKGGGGGAQSDTGRPFVEMYSEIPEIIHMTEGRELVIPCRVTSPNITVTLKKFPLDTLIPDGKRIIWDSRKGFIISNATYKEIGLLTCEATVNGHLYKTNYLTHRQTNTIIDVVLSPSHGIELSVGEKLVLNCTARTELNVGIDFNWEYPSSKHQHKKLVNRDLKTQSGSEMKKFLSTLTIDGVTRSDQGLYTCAASSGLMTKKNSTFVRVHEKLE
In general, IC50 refers to the midpoint of a concentration-inhibition curve. Regarding B1, the values for the IC50 in assay [1] and in assay [2] were 0.19 nM and 0.21 nM, respectively.

B2: GS01-A (other)
heavy: QVQLVQSGAEVKKPGASVKVSCKASGYTFTSYYIHWVRQAPGQGLEWMGWIFPGSGNSKYNENFKGRVTLTADTSTSTVYMELSSLRSEDTAVYYCASETYDYGDYWGQGTLVTVSSASTKGPSVFPLAPCSRSTSESTAALGCLVKDYFPEPVTVSWNSGALTSGVHTFPAVLQSSGLYSLSSVVTVPSSSLGTKTYTCNVDHKPSNTKVDKRVESKYGPPCPPCPAPEFLGGPSVFLFPPKPKDTLMISRTPEVTCVVVDVSQEDPEVQFNWYVDGVEVHNAKTKPREEQFNSTYRVVSVLTVLHQDWLNGKEYKCKVSNKGLPSSIEKTISKAKGQPREPQVYTLPPSQEEMGGAQTNFMPMDDLEQRLYEQFILQQGGGGSGGGGSGGGGSGGGGSTNFMPMDDLEQRLYEQFILQQGLETKNQVSLTCLVKGFYPSDIAVEWESNGQPENNYKTTPPVLDSDGSFFLYSRLTVDKSRWQEGNVFSCSVMHEALHNHYTQKSLSLSLGKGGGGSGGGGSGGGGSGGGGSEVQLVESGGGLVQPGGSLRLSCAASGFTISDYWIHWVRQAPGKGLEWVAGITPAGGYTYYADSVKGRFTISADTSKNTAYLQMNSLRAEDTAVYYCARFVFFLPYAMDYWGQGTLVTVSSGGGGSGGGGSGGGGSGGGGSDIQMTQSPSSLSASVGDRVTITCRASQDVSTAVAWYQQKPGKAPKLLIYSASFLYSGVPSRFSGSGSGTDFTLTISSLQPEDFATYYCQQGYGNPFTFGQGTKVEIK
light: DIQMTQSPSFLSASVGDRVTITCKASQNVGTNVAWYQQKPGKAPKALIYSASYRYSGVPSRFSGSGSGTEFTLTISSLQPEDFATYYCQQYYSYPYTFGQGTKLEIKRTVAAPSVFIFPPSDEQLKSGTASVVCLLNNFYPREAKVQWKVDNALQSGNSQESVTEQDSKDSTYSLSSTLTLSKADYEKHKVYACEVTHQGLSSPVTKSFNRGEC
As a reminder, the EC50 is the concentration at which the effect is half-maximal. As to B2, in assay [3], the EC50 worked out at 0.211 µg/mL. In the assay with PD-1, inhibition was half-maximal at 0.272 nM (IC50).

B3: ZA2-ld (protein)
chain: SDTGRPFVEMYSEIPEIIHMTEGRELVIPCRVTSPNITVTLKKFPLDTLIPDGKRIIWDSRKGFIISNATYKEIGLLTCEATVNGHLYKTNYLTHRQTNTIIDVVLSPSHGIELSVGEKLVLNCTARTELNVGIDFNWEYPSSKHQHKKLVNRDLKTQSGSEMKKFLSTLTIDGVTRSDQGLYTCAASSGLMTKKNSTFVRVHEKESKYGPPCPPCPAPEFLGGPSVFLFPPKPKDTLMISRTPEVTCVVVDVSQEDPEVQFNWYVDGVEVHNAKTKPREEQFNSTYRVVSVLTVLHQDWLNGKEYKCKVSNKGLPSSIEKTISKAKGQPREPQVYTLPPSQEEMGGAQTNFMPMDDLEQRLYEQFILQQGGGGSGGGGSGGGGSGGGGSTNFMPMDDLEQRLYEQFILQQGLETKNQVSLTCLVKGFYPSDIAVEWESNGQPENNYKTTPPVLDSDGSFFLYSRLTVDKSRWQEGNVFSCSVMHEALHNHYTQKSLSLSLGK
Turning to B3, the IC50 in assay [4] came to 0.03 nM; in assay [2], 0.2 nM.

B4: ZA2-ls (protein)
chain: SDTGRPFVEMYSEIPEIIHMTEGRELVIPCRVTSPNITVTLKKFPLDTLIPDGKRIIWDSRKGFIISNATYKEIGLLTCEATVNGHLYKTNYLTHRQTNTIIDVVLSPSHGIELSVGEKLVLNCTARTELNVGIDFNWEYPSSKHQHKKLVNRDLKTQSGSEMKKFLSTLTIDGVTRSDQGLYTCAASSGLMTKKNSTFVRVHEKESKYGPPCPPCPAPEFLGGPSVFLFPPKPKDTLMISRTPEVTCVVVDVSQEDPEVQFNWYVDGVEVHNAKTKPREEQFNSTYRVVSVLTVLHQDWLNGKEYKCKVSNKGLPSSIEKTISKAKGQPREPQVYTLPPSQEEMGGAQTNFMPMDDLEQRLYEQFILQQGLETKNQVSLTCLVKGFYPSDIAVEWESNGQPENNYKTTPPVLDSDGSFFLYSRLTVDKSRWQEGNVFSCSVMHEALHNHYTQKSLSLSLGK
Turning to B4, the IC50 in assay [4] worked out at 0.1 nM.

The values above are taken from patent US20220389120A1 (published 2022).
